Laboratory results published in publication PMC5613346 (Biochemistry and Biophysics Reports, 2016).

Assays:
[1] = molecular target: T1, mouse wtTNF (mouse), P06804; assay: SEC; conditions: remark: other sources report otherwise
T1 chain: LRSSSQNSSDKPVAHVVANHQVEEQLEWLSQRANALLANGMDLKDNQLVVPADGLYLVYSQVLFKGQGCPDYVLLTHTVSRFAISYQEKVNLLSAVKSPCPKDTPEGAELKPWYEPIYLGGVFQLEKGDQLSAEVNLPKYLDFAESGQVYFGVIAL

mTNFR1 Fc chimera = molecular target: T2, mTNFR1 Fc chimera (mouse, UniProt P25118); assay: SPR
T2 sequence: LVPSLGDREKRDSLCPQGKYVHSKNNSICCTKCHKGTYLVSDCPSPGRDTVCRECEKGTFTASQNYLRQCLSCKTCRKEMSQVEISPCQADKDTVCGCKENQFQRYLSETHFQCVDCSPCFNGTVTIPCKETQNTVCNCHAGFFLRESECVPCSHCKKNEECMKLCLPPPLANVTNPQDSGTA

mTNFR2 Fc chimera = molecular target: T3, mTNFR2 Fc chimera (mouse, UniProt P25119); assay: SPR
T3 sequence: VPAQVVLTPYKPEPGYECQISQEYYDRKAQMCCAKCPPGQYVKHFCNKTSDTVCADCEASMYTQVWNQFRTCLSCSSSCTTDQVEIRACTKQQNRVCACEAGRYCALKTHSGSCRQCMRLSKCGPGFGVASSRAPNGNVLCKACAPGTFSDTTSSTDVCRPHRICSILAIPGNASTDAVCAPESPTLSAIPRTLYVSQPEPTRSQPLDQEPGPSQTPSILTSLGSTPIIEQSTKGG

B1: mouse wtTNF (ligand)
chain: T1 chain
stoichiometry N [1]: 3 | Kd (mTNFR1 Fc chimera): 5.84 nM | koff (mTNFR1 Fc chimera): 0.000969 s⁻¹ | kon (mTNFR1 Fc chimera): 166000 M⁻¹ s⁻¹ | Kd (mTNFR2 Fc chimera): 10.4 nM | koff (mTNFR2 Fc chimera): 0.0056 s⁻¹ | kon (mTNFR2 Fc chimera): 537000 M⁻¹ s⁻¹
